Data from article PMC2922993.
pKd: −log10 of the molar value.

Key:
[1] = target: JMJD2A double tudor domain (UniProt O75164); experiment: ITC
[2] = target: inhibitor of growth 2 (ING2) PHD finger; experiment: ITC
[3] = target: ING2 PHD finger (UniProt Q9H160); experiment: ITC with soluble peptides; settings: reference: H3K4me3 peptide; sites T3
[4] = target: RAG2 PHD finger, 414-487 (UniProt P21784); experiment: ITC with soluble peptides; settings: reference: unphosphorylated H3K4me3 peptide

Chain of JMJD2A double tudor domain (O75164 895-1011): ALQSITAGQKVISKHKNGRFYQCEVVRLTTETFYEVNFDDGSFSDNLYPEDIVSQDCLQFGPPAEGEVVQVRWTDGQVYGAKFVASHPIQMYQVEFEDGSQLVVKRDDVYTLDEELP

H3K4me3T6ph peptide (ITC)
pKd [1]: 5.74
pKd [2]: 4.70

histone H3 (from UniProt P68431) H3K4me3 peptide with T3ph
KD [3]: lost; reference 0.98
KD ([4]; sites T3): lost; reference 17.8

histone H3 (from UniProt P68431) H3K4me3 peptide with T6ph
KD ([4]; sites T6): lost; reference 17.8
